In the supplement of paper PMC12042874 one finds amyloid nucleation score data, which are given here for 131 substances.

This data set is described as follows: amyloid nucleation score (Sup35N fusion, yeast selection) (log enrichment); library NNK3; higher = more nucleation; inactive = no reads after selection. A digest of the protocol:
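Three technical output replicates were used for random libraries. Psi-negative yeast expressing peptides of 20 random codons fused to Sup35N were induced with 100 μM copper sulfate for 24 hours and grown 7 days at 30°C on medium lacking adenine and uracil, and input and output plasmid inserts were Illumina-sequenced, excluding sequences with under 100 input reads. The nucleation score is the DiMSum log enrichment of output over input reads, centred on the mode score of non-aggregating sequences.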

± gives the uncertainty stated by the source.

Regarding SVGFRYHVLRKSKWCVYIVE, the amyloid nucleation score entry is “inactive”.
To DRNAEELWCTRLLCYESCRT belongs “inactive”.
To YLDRTSSMVTLVVSRGIF belongs “inactive”.
As for ADKRFI, the amyloid nucleation score entry was “inactive”.
To FRDIRFAQSMMLSRKIIALL belongs “inactive”; to YVGVVVYLLPMLGALYGFGD, “inactive”; to GKVSAFCMHGGYTCDLSVEL, “inactive”.
To NMDNHTPG belongs “inactive”; to EGGDHCMNGHCVCRVGWLWA, “inactive”; to FAGCWTVTSMGFCNRSGMKL, “inactive”.
As to RYLNVVPLLPCYMIWFPRVS, the amyloid nucleation score entry is “inactive”.
RLFYTRIDSTCIWLVLYAEK: the amyloid nucleation score result is “inactive”.
To FARKWCVKNGYGSRTSASFM belongs “inactive”.
To CTSAKIICHQSMRTRCTEQD belongs “inactive”.
To CAFLFL belongs “inactive”; to KQLLAKTALAYEAIRPPIPI, “inactive”.
AFVFATAITELVYCSCLNRP: the amyloid nucleation score is 2.04 ± 0.089.
The result for GRMEGNRFIDRLLGLHTSSP reads “inactive”; that for YAYMYNVCYGDCRCANGVWY, 2.71 ± 0.084; that for TMSLTDYLCGCSWFWCKTSR, “inactive”.
SVNWWTVLCVHCPGYKNLLI returned an amyloid nucleation score of 0.465 ± 0.26.
The result for TRSNRRHVRVT reads “inactive”; that for VTMMLVMLFSQMFSFLAFVN, “inactive”; that for VSGMNSKLFYW, “inactive”.
The result for FFGKAT reads “inactive”.
As for YTIPSPVGLVLDSPVEIRDL, the amyloid nucleation score result was “inactive”.
SFLWGFCRTKETGGSFMFNR gave an amyloid nucleation score of 0.264 ± 0.62.
The result for PEYCKAWLRWKPISVYTQVW reads “inactive”; that for GLRGVDWVDREQLPGTVQGH, -0.589 ± 1.9.
The result for YFLDLL reads “inactive”; that for MMYNVMVSSRLMRLCFSRRV, “inactive”.
Turning to QLLLKT, the amyloid nucleation score result was “inactive”.
With DCYMDLSRQFRNRCGLASFY, the amyloid nucleation score entry is “inactive”.
Regarding ASTRNVGYRVT, the amyloid nucleation score result was “inactive”.
To RVVPL belongs “inactive”; to IYAQELLSVANLLRFL, “inactive”; to VYHFSGWCRHSCSSLQKSHD, “inactive”.
On to MPTTHASLSSSFLG, for which the amyloid nucleation score result is “inactive”.
As to SGGNLWGFVDTLFIGMRIRY, the amyloid nucleation score result is “inactive”.
To REGLRYLMVRSIIFSHIFCN belongs “inactive”; to FFLSFRYLKKFSRIGLW, “inactive”; to LEITALLTVRMHVDS, “inactive”.
To WFCVLMDSAWDCRVIGGGGR belongs 1.1 ± 0.13.
The result for NDASPLFSKGVLDFLSTKSL reads “inactive”; that for FISSSCSFVRCILLVNYKIR, -0.66 ± 1.9.
Consider KGQDCNVLNSNYESSIVGDL, for which the amyloid nucleation score entry was “inactive”.
For GYRSTCVRRFCECRCRDITA, the amyloid nucleation score result was “inactive”.
LWGAYLLNCGNMRYCMYISG: the amyloid nucleation score turned out to be 0.803 ± 0.2.
The result for CRYLICVGS reads “inactive”; that for KFGEAWIIPRDRVMEVFEW, “inactive”.
As for VSNDLNFILYAPTNVVMSTY, the amyloid nucleation score is 1.25 ± 0.14.
The result for NVVSWGHDLYGKKAPALWEV reads “inactive”.
The result for FSRKDTYFLMGIFKLNLRYL reads “inactive”.
With ALLESFIKKRSMFLNVNGGF, the amyloid nucleation score entry was “inactive”.
Take LKSMLLFSMRSRSVKCCGGE: the amyloid nucleation score entry is “inactive”.
The result for CLGVSNTYHWSYRRIFRYRF reads “inactive”; that for FDKTCGSSRNLSRAWDNLTF, “inactive”.
The result for HVARFMLNRYLLFGEPYMLK reads “inactive”; that for MVVYKNYM, “inactive”.
On to WTSDSRCYMNLKRCRGYTLF, for which the amyloid nucleation score entry is “inactive”.
The result for CHILKPWLGVRKPSPFCNYS reads “inactive”.
On to RIYSDGRSSFSRQLVWVCSR, for which the amyloid nucleation score entry is “inactive”.
To FVMGGGNGGHVGYMCFCEEV belongs “inactive”.
Consider SVVIYWIWNCL, for which the amyloid nucleation score came out at 3.09 ± 0.068.
To EILSPVGTSTCILTSPRTCY belongs “inactive”.
To ICIHLELRILCPHHAPDGSL belongs -0.118 ± 0.43; to NIWESAVPWVTDALVYKNRV, -0.323 ± 0.96; to NVPLKWLTWYNRRAATWVEM, “inactive”.
The result for WGVGTPVRLWFIEANPVGHV reads “inactive”; that for GSAECGCFASVYMNSMIKTV, “inactive”; that for ICLAFRPECCCGIWTDKRIG, 1.74 ± 0.088.
SFKDCSVDSWFGSIIG: the amyloid nucleation score result was “inactive”.
In the case of ISTARCNLLCRCWLRIYYND, the amyloid nucleation score entry is “inactive”.
NTRRNYNGRYLVLCIRLQLR gave an amyloid nucleation score of 1.81 ± 0.072.
As for NYDIASLFTTNKSFV, the amyloid nucleation score entry is “inactive”.
Regarding SAWQPWMKDRSS, the amyloid nucleation score result was “inactive”.
On to RGDSRFP, for which the amyloid nucleation score was 0.08 ± 0.88.
For GAYSGLCSILGSFLGLSAVK, the amyloid nucleation score entry was “inactive”.
To LCFNCMS belongs 2.74 ± 0.076; to VLTVEMLHAWNCG, “inactive”.
Substance PGWVDHIEAISRTVRGWFGP showed an amyloid nucleation score of 1.77 ± 0.12.
AGPVPIT registered an amyloid nucleation score of 0.723 ± 0.25.
To FSRMPSIKCMNCMCKLFSRK belongs 1.06 ± 0.11; to FVLSMECSSRSSPSHTRDCA, -0.083 ± 0.33.
Turning to FMSYCMYSLEGNSWHCGP, the amyloid nucleation score is 3.03 ± 0.061.
Regarding LFNGFVDTMESIVSFDNTSY, the amyloid nucleation score result was “inactive”.
On to INTKECYHSGS, for which the amyloid nucleation score result is “inactive”.
On to RYLTNLWNYTFLINRAMLTY, for which the amyloid nucleation score result was “inactive”.
To IWIGFPFLSSSGGPMYPL belongs “inactive”; to QLSFMEGANLRYCDFKPMIV, “inactive”; to TGNDGYCVCSVCYLRICVAN, “inactive”.
VCFGWSNSFSAWT: the amyloid nucleation score entry is “inactive”.
To VGNNWS belongs “inactive”.
Regarding FLQSGN, the amyloid nucleation score entry is “inactive”.
To NLEFFCKDV belongs “inactive”; to RLFSWNIYLWLL, 1.48 ± 0.081.
As for LHGNLRNLI, the amyloid nucleation score result was “inactive”.
The result for AEASNGACLRLCWLVLVWMD reads -0.206 ± 1.5; that for EVGVTSLTIGHVT, 1.29 ± 0.096; that for LYSVSAAMDTIKPLFPRGNA, “inactive”.
Regarding VWYDRSEGLARAHNLYSGSE, the amyloid nucleation score entry was “inactive”.
The result for VNEFNGDGGSQLRQKQNPLF reads “inactive”; that for RIETYCVRGILAIE, “inactive”; that for DIMLYSWITCIMSSAPPRDN, 1.74 ± 0.11.
Turning to DLFISPKFVQ, the amyloid nucleation score entry was “inactive”.
The result for GYQLRRMMQTMRMKYRISSR reads “inactive”.
The substance FIGSGSHEIGGHINGKALSS came in with an amyloid nucleation score of 0.644 ± 0.19.
Regarding CPFHIIHKQSLRKMMSTWEA, the amyloid nucleation score entry is “inactive”.
The result for ERTSYSC reads “inactive”; that for IYVQNSTANKR, “inactive”.
In the case of VYGIQRVMGRLWIMNVWVPF, the amyloid nucleation score result is “inactive”.
To WPVNCMKGSSCNRELFNH belongs “inactive”; to RMFWRYWYSQEMGYDRAIKG, “inactive”.
As to LGQFDTDTLAHDSMGAGNAV, the amyloid nucleation score turned out to be 1.24 ± 0.16.
To GFKVVYKIWLPASRSACDPW belongs 1.31 ± 0.13; to HFKVFT, “inactive”.
Take RRGSNTGCPNVQNFVITLWQ: the amyloid nucleation score result was “inactive”.
The result for GFYTVFCIMQSAEGLDGTVW reads 1.26 ± 0.12.
The result for NVTNSRHHLQFGYMRAMVNV reads “inactive”; that for CKTVAYEYFTGLSLVLDFTR, “inactive”.
CEDGA gave an amyloid nucleation score of -0.068 ± 0.75.
Turning to YSHGTAKIPQAVVNDVIKSI, the amyloid nucleation score result was “inactive”.
For the substance DIFWYTASNYYIIYNAYYPA, the amyloid nucleation score stood at 0.709 ± 0.14.
Substance LDFVYCNAVFWTLNGFLNCA showed an amyloid nucleation score of 1.78 ± 0.078.
With QWEVR, the amyloid nucleation score entry was “inactive”.
To VCRDSVILLDLLGAMCVVYG belongs “inactive”; to VILATAYLASNLYPVCSLIS, “inactive”; to LSTCFTGAFRVSNREKSNVS, 0.059 ± 0.43.
For NNQCKACSLWWQSSYPDKMF, the amyloid nucleation score result is “inactive”.
In turn, FLAIGLFSSNT returned an amyloid nucleation score of 1.73 ± 0.061.
To WFTQERHSVPLLIWMGLRRQ belongs 2.03 ± 0.075.
